The record followed here is patent US20230227576A1 (published 2023).

The assay concerns the target carcinoembryonic antigen (CEA) (Homo sapiens (Human), UniProt P06731). The assay can be described thus: cell-based or functional assay.

B1: MFE23 CD28(IEV) truncated CoStAR (CAR)
chain: QVKLQQSGAELVRSGTSVKLSCTASGFNIKDSYMHWLRQGPEQGLEWIGWIDPENGDTEYAPKFQGKATFTTDTSSNTAYLQLSSLTSEDTAVYYCNEGTPTGPYYFDYWGQGTTVTVSSGGGGSGGGGSGGGGSENVLTQSPAIMSASPGEKVTITCSASSSVSYMHWFQQKPGTSPKLWIYSTSNLASGVPARFSGSGSGTSYSLTISRMEAEDAATYYCQQRSSYPLTFGAGTKLELKRIEVMYPPPYLDNEKSNGTIIHVKGKHLCPSPLFPGPSKPFWVLVVVGGVLACYSLLVTVAFIIFWVRSKRSRLLHSDYMNMTPRRPGPTRKHYQPYAPPRDFAAYRS
As to B1, the “IL-2 secretion (ELISA)” value was found to be 4.6 ng/mL.
